Measured values: paper doi:10.1101/2021.07.09.451512
Read-outs that look alike come from different tables or passages of the source.

What was measured:
Assay in all cases: fluorescence polarisation
[1] = target: fluorescein labelled AcrIIC4 (wild type, engineered C-terminal cysteine) (Haemophilus parainfluenzae (prophage))
[2] = target: fluorescein labelled AcrIIC4 (wild type, engineered C-terminal cysteine) (Haemophilus parainfluenzae (prophage)); remark: listed apart in the source
[3] = target: fluorescein labelled AcrIIC4 (wild type, engineered C-terminal cysteine) (Haemophilus parainfluenzae (prophage)); remark: listed apart in the source
[4] = target: fluorescein labelled AcrIIC4 R46A (Haemophilus parainfluenzae (prophage))
[5] = target: fluorescein labelled AcrIIC4 K56A (Haemophilus parainfluenzae (prophage))
[6] = target: fluorescein labelled AcrIIC4 F49A (Haemophilus parainfluenzae (prophage))

B1: Nme1Cas9 (N-terminal 6His-tag) (natural protein)
chain: MAAFKPNSINYILGLDIGIASVGWAMVEIDEEENPIRLIDLGVRVFERAEVPKTGDSLAMARRLARSVRRLTRRRAHRLLRTRRLLKREGVLQAANFDENGLIKSLPNTPWQLRAAALDRKLTPLEWSAVLLHLIKHRGYLSQRKNEGETADKELGALLKGVAGNAHALQTGDFRTPAELALNKFEKESGHIRNQRSDYSHTFSRKDLQAELILLFEKQKEFGNPHVSGGLKEGIETLLMTQRPALSGDAVQKMLGHCTFEPAEPKAAKNTYTAERFIWLTKLNNLRILEQGSERPLTDTERATLMDEPYRKSKLTYAQARKLLGLEDTAFFKGLRYGKDNAEASTLMEMKAYHAISRALEKEGLKDKKSPLNLSPELQDEIGTAFSLFKTDEDITGRLKDRIQPEILEALLKHISFDKFVQISLKALRRIVPLMEQGKRYDEACAEIYGDHYGKKNTEEKIYLPPIPADEIRNPVVLRALSQARKVINGVVRRYGSPARIHIETAREVGKSFKDRKEIEKRQEENRKDREKAAAKFREYFPNFVGEPKSKDILKLRLYEQQHGKCLYSGKEINLGRLNEKGYVEIDHALPFSRTWDDSFNNKVLVLGSENQNKGNQTPYEYFNGKDNSREWQEFKARVETSRFPRSKKQRILLQKFDEDGFKERNLNDTRYVNRFLCQFVADRMRLTGKGKKRVFASNGQITNLLRGFWGLRKVRAENDRHHALDAVVVACSTVAMQQKITRFVRYKEMNAFDGKTIDKETGEVLHQKTHFPQPWEFFAQEVMIRVFGKPDGKPEFEEADTLEKLRTLLAEKLSSRPEAVHEYVTPLFVSRAPNRKMSGQGHMETVKSAKRLDEGVSVLRVPLTQLKLKDLEKMVNREREPKLYEALKARLEAHKDDPAKAFAEPFYKYDKAGNRTQQVKAVRVEQVQKTGVWVRNHNGIADNATMVRVDVFEKGDKYYLVPIYSWQVAKGILPDRAVVQGKDEEDWQLIDDSFNFKFSLHPNDLVEVITKKARMFGYFASCHRGTGNINIRIHDLDHKIGKNGILEGIGVKTALSFQKYQIDELGKEIRPCRLKKRPPVR
[1]
  Kd: 7.1 nM
[2]
  Kd: 10.2 nM
[3]
  Kd: 6.6 nM
[4]
  Kd: > 2500 nM
[5]
  Kd: 1.4 nM
[6]
  Kd: 15.3 nM
